{
  "source": "paper PMC4081103",
  "about": "“PARG is dispensable for recovery from transient replicative stress but required to prevent detrimental accumulation of poly(ADP-ribose) upon prolonged replicative stress”",
  "molecular_target": "RPA heterotrimer (RPA1, RPA2, RPA3) (UniProt P27694;P15927;P35244 1-616;1-270;1-121)",
  "sequence (P27694 whole entry, chain 1 of 3)": "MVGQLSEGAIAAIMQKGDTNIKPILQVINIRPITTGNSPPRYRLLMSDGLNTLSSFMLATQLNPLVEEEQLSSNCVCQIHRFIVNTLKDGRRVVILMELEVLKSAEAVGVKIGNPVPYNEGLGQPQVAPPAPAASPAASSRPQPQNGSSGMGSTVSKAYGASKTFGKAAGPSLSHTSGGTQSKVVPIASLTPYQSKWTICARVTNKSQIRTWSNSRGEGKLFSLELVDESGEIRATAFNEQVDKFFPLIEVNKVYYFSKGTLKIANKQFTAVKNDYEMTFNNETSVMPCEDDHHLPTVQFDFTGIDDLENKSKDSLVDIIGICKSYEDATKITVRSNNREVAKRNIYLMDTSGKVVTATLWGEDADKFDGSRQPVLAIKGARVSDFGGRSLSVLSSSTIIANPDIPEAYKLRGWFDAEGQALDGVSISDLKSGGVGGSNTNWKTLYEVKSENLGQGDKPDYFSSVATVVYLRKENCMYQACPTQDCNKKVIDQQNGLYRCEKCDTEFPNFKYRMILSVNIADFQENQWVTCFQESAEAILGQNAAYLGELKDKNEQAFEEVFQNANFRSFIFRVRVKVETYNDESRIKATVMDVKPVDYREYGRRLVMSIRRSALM",
  "sequence (P15927 whole entry, chain 2 of 3)": "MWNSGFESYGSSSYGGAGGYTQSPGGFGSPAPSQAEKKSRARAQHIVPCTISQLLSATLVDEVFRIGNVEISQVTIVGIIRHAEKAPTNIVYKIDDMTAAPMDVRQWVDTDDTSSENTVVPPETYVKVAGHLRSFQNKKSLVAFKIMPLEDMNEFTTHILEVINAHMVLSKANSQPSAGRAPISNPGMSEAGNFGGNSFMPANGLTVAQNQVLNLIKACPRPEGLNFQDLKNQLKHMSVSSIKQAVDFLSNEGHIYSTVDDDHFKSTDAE",
  "sequence (P35244 whole entry, chain 3 of 3)": "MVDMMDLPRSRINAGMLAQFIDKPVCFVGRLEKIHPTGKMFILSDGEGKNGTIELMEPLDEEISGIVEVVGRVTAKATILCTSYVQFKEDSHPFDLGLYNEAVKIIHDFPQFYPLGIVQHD",
  "test": "EMSA; low PAR (lanes 3-4, from 8 ng) mixed with DNA before RPA; free DNA decreased; PBS, 20 ul, 20-23 C (room temperature), 30 min; 1% agarose gel in 0.5x TBE at 4 C; pH not stated",
  "conditions": "protein: recombinant; copies: 1;1;1; label: 5' Cy5.5; single strand",
  "data": [
    {"binder": "TTTTTTTTTTTTTTTTTTTTTTTTTTTTTTTTTTTTTTTTTTTTTTTTTT (ssDNA)", "note": "[Cy5.5-oligodT 50-mer]", "values": [
      {"measurement": "binding result", "result": "binds"}
    ]}
  ]
}
